Test results from US20250289893A1 (OXFORD UNIVERSITY INNOVATION, published 2025).

T1: Cynomolgus monkey CD1a protein (Cynomolgus monkey)
T1 chain: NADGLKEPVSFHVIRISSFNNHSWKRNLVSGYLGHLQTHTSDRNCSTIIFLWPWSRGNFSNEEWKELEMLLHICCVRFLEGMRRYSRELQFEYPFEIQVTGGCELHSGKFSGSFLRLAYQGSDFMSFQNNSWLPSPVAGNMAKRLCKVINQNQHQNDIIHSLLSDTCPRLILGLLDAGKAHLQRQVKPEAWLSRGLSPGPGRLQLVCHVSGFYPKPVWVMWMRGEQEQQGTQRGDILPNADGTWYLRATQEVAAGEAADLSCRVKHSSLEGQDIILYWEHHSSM


Legend:
[1] = biological target: T2, human CD1a expressed on cells (human, UniProt P06126 17-327; P61769 21-119); experiment: flow cytometry, C1R cells, 0.1 µg/ml antibody
T2 construct: also called HEK - CD1a; C1R - CD1a
Procedure: (§1) Binding to proteins expressed on HEK, C1R and MOLT4 cell lines was assessed. […] The C1R-CD1a, C1R-empty vector and MOLT4 cell lines were washed in 1×PBS on the day required. All cell lines were counted and resuspended in 1×PBS and then stained for 30 minutes at 37° C. using the DiI or DiO cellular stains (Invitrogen). Cells were washed with flow cytometry buffer (1% bovine serum albumin, 2 mM EDTA and 0.1% sodium azide in PBS) before mixing 2 DiI-stained and DiO-stained populations together. The cells (20 μl/well) were then added to dilutions of antibody sample (B cell culture supernatant, TAP supernatant, clone supernatant, purified antibody solution) (20 μl/well) and incubated for 1 hour at 4° C. in a flow cytometry assay plate, before being washed with flow cytometry buffer. 10 μl/well of Alexafluor647-conjugated goat anti-species IgG Fc-specific F(ab′)2 fragment (Jackson ImmunoResearch), diluted 1:2500 in flow cytometry buffer, was added and incubated at 4° C. for 30 minutes, followed by washing with wash buffer. The fluorescence intensity was then measured on an iQue screener PLUS.
(§2) Binding was quantified as fold change in fluorescence intensity geomean over background assessed by flow cytometry.

[2] = biological target: T3, chimeric CD1a pool B protein [human CD1a lipid binding domain, mouse CD1d Ig domain] (human; mouse, UniProt P06126 18-201; P11609 205-297, limits assumed); experiment: ELISA, 0.316 µg/ml antibody
Procedure: (§3) CD1a-specific antibodies were identified by ELISA. […] 20 μl/well of peroxidase-conjugated goat anti-species IgG Fc-specific F(ab′)2 fragment (Jackson ImmunoResearch), diluted 1:5000 in block buffer was added and incubated at room temperature for 1 hour, followed by washing with wash buffer.
(§4) The antibodies were titrated through a dilution series and compared to a control rabbit IgG antibody. […] Data shown for purified antibodies.

[3] = biological target: T4, Cynomolgus monkey CD1a expressed on HEK-293 cells (Cynomolgus monkey, UniProt A0A2K5VQ68 17-326); experiment: flow cytometry, HEK-293 cells, 10 µg/ml antibody
Procedure: as §1, §2

[4] = biological target: T2, human CD1a expressed on cells; experiment: flow cytometry, C1R cells, 3.16 µg/ml antibody
Procedure: as §1, §2

[5] = biological target: T2, human CD1a expressed on cells; experiment: flow cytometry, HEK-293 cells, 0.1 µg/ml antibody
Procedure: as §1
(§5) HEK-293 cells were transiently transfected with human CD1a, CD1b, CD1c or CD1d and co-transfected with human β2M.

[6] = biological target: T5, human CD1c expressed on HEK-293 cells (human, UniProt P29017 18-333; P61769 21-119); experiment: flow cytometry, HEK-293 cells, 0.1 µg/ml antibody
T5 construct: also called HEK - CD1c
Procedure: as §1, §5

[7] = biological target: T6, human CD1b expressed on HEK-293 cells (human, UniProt P29016 18-333; P61769 21-119); experiment: flow cytometry, HEK-293 cells, 0.1 µg/ml antibody
T6 construct: also called HEK - CD1b
Procedure: as §1, §5

[8] = biological target: T7, human CD1d expressed on HEK-293 cells (human, UniProt P15813 20-335; P61769 21-119); experiment: flow cytometry, HEK-293 cells, 0.1 µg/ml antibody
T7 construct: also called HEK - CD1d
Procedure: as §1, §5

[9] = biological target: T4, Cynomolgus monkey CD1a expressed on …; experiment: flow cytometry, HEK-293 cells, 1 µg/ml antibody
Procedure: as §1, §2

[10] = biological target: T2, human CD1a expressed on cells; experiment: flow cytometry, C1R cells, 10 µg/ml antibody
Procedure: as §1, §2

[11] = biological target: T4, Cynomolgus monkey CD1a expressed on …; experiment: flow cytometry, HEK-293 cells, 0.1 µg/ml antibody
Procedure: as §1, §2

[12] = biological target: T1, Cynomolgus monkey CD1a protein; experiment: ELISA, 0.1 µg/ml antibody
[13] = biological target: T8, human CD1a protein (pool B) (human, UniProt P06126 18-295, limits assumed); experiment: ELISA, 31.6 µg/ml antibody
T8 construct: Recombinant protein of the ELISA (coated) and the Biacore T200 titration; whole entry named; also called human CD1a pool B; full length CD1a
Procedure: as §3
(§6) The antibodies were titrated through a dilution series and compared to a control rabbit IgG antibody.

[14] = biological target: T2, human CD1a expressed on cells; experiment: flow cytometry, HEK-293 cells, 10 µg/ml antibody
Procedure: as §1, §5

[15] = biological target: T5, human CD1c expressed on HEK-293 cells; experiment: flow cytometry, HEK-293 cells, 10 µg/ml antibody
Procedure: as §1, §5

[16] = biological target: T6, human CD1b expressed on HEK-293 cells; experiment: flow cytometry, HEK-293 cells, 10 µg/ml antibody
Procedure: as §1, §5

[17] = biological target: T7, human CD1d expressed on HEK-293 cells; experiment: flow cytometry, HEK-293 cells, 10 µg/ml antibody
Procedure: as §1, §5

[18] = biological target: T8, human CD1a protein (pool B); experiment: ELISA, 1 µg/ml antibody
Procedure: as §3, §6

[19] = biological target: T1, Cynomolgus monkey CD1a protein; experiment: ELISA, 1 µg/ml antibody
[20] = biological target: T2, human CD1a expressed on cells; experiment: flow cytometry, C1R cells, 0.316 µg/ml antibody
Procedure: as §1, §2

[21] = biological target: T3, chimeric CD1a pool B protein [human …; experiment: ELISA, 10 µg/ml antibody
Procedure: as §3, §4

[22] = biological target: T2, human CD1a expressed on cells; experiment: flow cytometry, C1R cells, 100 µg/ml antibody
Procedure: as §1, §2

[23] = biological target: T2, human CD1a expressed on cells; experiment: flow cytometry, MOLT4 cells, 3.16 µg/ml antibody
Procedure: CD1a-specific antibodies were identified by flow cytometry. Binding to proteins expressed on HEK, C1R and MOLT4 cell lines was assessed. […] The C1R-CD1a, C1R-empty vector and MOLT4 cell lines were washed in 1×PBS on the day required. All cell lines were counted and resuspended in 1×PBS and then stained for 30 minutes at 37° C. using the DiI or DiO cellular stains (Invitrogen). Cells were washed with flow cytometry buffer (1% bovine serum albumin, 2 mM EDTA and 0.1% sodium azide in PBS) before mixing 2 DiI-stained and DiO-stained populations together. The cells (20 μl/well) were then added to dilutions of antibody sample (B cell culture supernatant, TAP supernatant, clone supernatant, purified antibody solution) (20 μl/well) and incubated for 1 hour at 4° C. in a flow cytometry assay plate, before being washed with flow cytometry buffer. 10 μl/well of Alexafluor647-conjugated goat anti-species IgG Fc-specific F(ab′)2 fragment (Jackson ImmunoResearch), diluted 1:2500 in flow cytometry buffer, was added and incubated at 4° C. for 30 minutes, followed by washing with wash buffer. The fluorescence intensity was then measured on an iQue screener PLUS.
as §2

[24] = biological target: T3, chimeric CD1a pool B protein [human …; experiment: ELISA, 3.16 µg/ml antibody
Procedure: as §3, §4

[25] = biological target: T8, human CD1a protein (pool B); experiment: ELISA, 3.16 µg/ml antibody
Procedure: as §3, §6

T4 sequence (A0A2K5VQ68 entry or part of it): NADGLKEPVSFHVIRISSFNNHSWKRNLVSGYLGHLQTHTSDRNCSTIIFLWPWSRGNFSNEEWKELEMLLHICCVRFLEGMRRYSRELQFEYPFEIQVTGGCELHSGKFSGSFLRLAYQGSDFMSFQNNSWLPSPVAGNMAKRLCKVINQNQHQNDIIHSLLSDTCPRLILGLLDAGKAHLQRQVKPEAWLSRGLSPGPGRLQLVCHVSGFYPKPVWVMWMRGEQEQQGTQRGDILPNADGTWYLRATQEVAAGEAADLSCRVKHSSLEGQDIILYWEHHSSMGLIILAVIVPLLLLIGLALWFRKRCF
T3 sequence (P06126 other isoform, or with tags, fused parts or gaps mutant limits assumed): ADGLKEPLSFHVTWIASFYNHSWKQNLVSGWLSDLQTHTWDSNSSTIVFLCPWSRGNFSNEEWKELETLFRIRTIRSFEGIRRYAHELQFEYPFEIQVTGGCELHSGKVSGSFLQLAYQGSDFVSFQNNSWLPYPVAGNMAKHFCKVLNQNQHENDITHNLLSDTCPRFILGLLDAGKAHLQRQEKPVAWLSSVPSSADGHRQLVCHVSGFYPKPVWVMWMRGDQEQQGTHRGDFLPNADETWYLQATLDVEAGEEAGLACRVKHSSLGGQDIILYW
T8 sequence (P06126 18-295 limits assumed): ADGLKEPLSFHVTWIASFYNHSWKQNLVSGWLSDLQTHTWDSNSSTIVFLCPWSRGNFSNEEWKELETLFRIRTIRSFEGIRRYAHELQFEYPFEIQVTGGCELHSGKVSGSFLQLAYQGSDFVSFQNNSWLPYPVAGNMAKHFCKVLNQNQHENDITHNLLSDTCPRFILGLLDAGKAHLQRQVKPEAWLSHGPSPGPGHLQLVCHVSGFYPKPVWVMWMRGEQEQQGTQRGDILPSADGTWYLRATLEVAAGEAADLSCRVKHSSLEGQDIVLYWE

Binder	Fluorescence Intensity Geomean (normalized to background) [1] [fold over background]	Optical Density (OD) [2] [OD]	Fluorescence Intensity Geomean (normalized to background) [3] [fold over background]	Fluorescence Intensity Geomean (normalized to background) [4] [fold over background]	Fluorescence Intensity Geomean (normalized to background) [5] [fold over background]	Fluorescence Intensity Geomean (normalized to background) [6] [fold over background]	Fluorescence Intensity Geomean (normalized to background) [7] [fold over background]	Fluorescence Intensity Geomean (normalized to background) [8] [fold over background]	Fluorescence Intensity Geomean (normalized to background) [10] [fold over background]	Fluorescence Intensity Geomean (normalized to background) [11] [fold over background]	Optical Density (OD) [12] [OD]	Optical Density (OD) [13] [OD]	Fluorescence Intensity Geomean (normalized to background) [14] [fold over background]	Fluorescence Intensity Geomean (normalized to background) [15] [fold over background]	Fluorescence Intensity Geomean (normalized to background) [16] [fold over background]	Fluorescence Intensity Geomean (normalized to background) [17] [fold over background]	Optical Density (OD) [19] [OD]	Fluorescence Intensity Geomean (normalized to background) [20] [fold over background]	Optical Density (OD) [21] [OD]	Fluorescence Intensity Geomean (normalized to background) [22] [fold over background]	other results
116 (VR12117) (antibody, V domains shown, also called OX116) VH: QSVEESGGRLVTPGTPLTLTCTVSGFSLSNYAMSWVRQAPGKGLEWIGIIYTTGFTYYASWVKGRFTISKTSTTVDLKITSPTTEDTATYFCARGLATYVSPPTRLDLWGQGTLVTVSS VL: AQVLTQTPSPVSAAVGGTVTINCQASQSIYNSKNLAWYQQKPGQPPKLLIYSASTLASGVPSRFKGSGSGTQFTLTISDLECDDAATYYCQGEFSCSSVDCATFGGGTEVVVK	27	1.32	1.7	24	26.7	1	1	1.1	16.9	1	0.07	1.16	12.6	1.1	1	1.1	0.14	27.5	1.4	11.9	Fluorescence Intensity Geomean (normalized to background) [9]: 0.8 fold over background; Optical Density (OD) [18]: 1.15 OD; Fluorescence Intensity Geomean (normalized to background) [23]: 23.9 fold over background; Optical Density (OD) [24]: 1.38 OD; Optical Density (OD) [25]: 1.15 OD
110 (VR12112) (antibody, V domains shown, also called OX110; antibody 110) VH: QSVEESGGRLVTPGTPLTLTCTVSGFSLSSYAMIWVRQAPGKGLEWIGIINSSDNTHYATWAKGRFTISKTSTTVDLKITSPTTEDTATYFCARDPYDYGYGWYFDLWGPGTLVTVSS VL: AQVLTQTPSPVSAAVGGTVTINCQASQSVFNNKNLAWYQQKPGQPPKLLIYKASTLASGVSSRFKGSGSGTQFALTISGVQCDDAATYYCQGEFSCSSTDCVTFGGGTEVVVK	25.8	1.24	13.6	15.2	20.2	1	1	1	8.3	3.3	0.53	1.24	15.7	1	1.1	1	0.94	29.7	1.46	4.8	Fluorescence Intensity Geomean (normalized to background) [23]: 22.6 fold over background; Optical Density (OD) [24]: 1.53 OD; Optical Density (OD) [25]: 1.27 OD
77A (VR11851) (antibody, V domains shown, also called OX77a; antibody 77a) VH: QSVEESGGRLVTPGTPLTLTCTVSGFSLSSYAMSWVRQAPGKGLEWIGIISSSGTTYYASWAKGRFTISKTSTTVDLKITSPTTEDTATYFCARVDYYSSGWGGLWGPGTLVTVSS VL: AVEMTQTPASMSAAVGGTVTIKCQASEDIYSNLAWYQQKPGQPPKLLIYGASTLASGVPSRFKGSGSGTEYTLTISGVQCDDAATYYCQCTYDTSSYGNTFGGGTEMVVE	16.4	1.28	1.4	4.2	43.8	0.9	1	0.9	2.3	5.7	0.24	1.28	13.7	0.9	1.1	1	0.43	19	1.31	0.9	Fluorescence Intensity Geomean (normalized to background) [9]: 10.6 fold over background; Optical Density (OD) [18]: 1.34 OD; Fluorescence Intensity Geomean (normalized to background) [23]: 7.4 fold over background; Optical Density (OD) [24]: 1.28 OD; Optical Density (OD) [25]: 1.33 OD
111 (VR12113) (antibody, V domains shown, also called OX111) VH: QSVEESGGRLVTPGTPLTLTCTASGFSLSTYAMSWVRQAPGKGLEWIGIISSSGSTYYASWAKGRFTISKTSTTVDLKITSPTTEDTATYFCARETWYWLDLWGQGTLVTVSS VL: AVEMTQTPASVSAAVGGTVTINCQASEDIYSNLAWYQQKPGQPPKLLIYGASTLASGVPSRFKGSGSGTEYTLTISGVQCDDAATYYCQCAYDSSSYGTPFGGGTEVVVK	25.4	1.32	16.3	15.6	23.1	1	1	1	11.7	25.8	0.66	1.07	11.1	1	1.1	1.1	0.69	28.8	1.4	7.3	Fluorescence Intensity Geomean (normalized to background) [9]: 12.9 fold over background; Optical Density (OD) [18]: 1.14 OD; Fluorescence Intensity Geomean (normalized to background) [23]: 18.9 fold over background; Optical Density (OD) [24]: 1.41 OD; Optical Density (OD) [25]: 1.13 OD
